Tested on: MS2 coat protein
Test: apparent KD of MS2 coat protein; designed switch direction (-1 OFF switch, 1 ON switch): -1; higher = weaker reporter binding
Procedure, shortened: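 Designed RNA switches with common flanks were transcribed on Illumina chips by stalled E. coli RNA polymerase and titrated with SNAP-549-labelled MS2 coat protein, from 0.7 or 1.5 nM doubling to 3 µM, in Tris-HCl pH 7.5 buffer with KCl, MgCl2, BSA, DTT, tRNA and Tween-20. Steps lasted 0.8–1.5 h (lowest) to 10–20 min (highest). Titrations ran without input, with 200 uM small-molecule ligand, or with an oligonucleotide input. Normalised cluster fluorescence was curve-fitted, and apparent KD is the per-design median over clusters.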

[1] = input ligand: microRNA oligo, concentration not stated
[2] = Eterna round: R95, input ligand: FMN 200 uM
[3] = Eterna round: R95, input ligand: microRNA oligo, concentration not stated
[4] = Eterna round: R95, input ligand: none

Sequence	apparent KD of MS2 coat protein (input ligand: FMN 200 uM)	apparent KD of MS2 coat protein [1]	apparent KD of MS2 coat protein (input ligand: none)	apparent KD of MS2 coat protein [2]	apparent KD of MS2 coat protein [3]	apparent KD of MS2 coat protein [4]
UUAAAUCAUGUAGGAUAUGCGUGGCGAAGCUAUGCAGAAGGACAUGAGGAUCACCCAUGUUCUUGCGUCUGCGUACAGAUGCGG [Exclusion NG 1] (Eterna round: R96, puzzle: Exclusion NG 1)	175 nM	20 nM	25.9 nM	–	–	–
AUAUACGGAGGAUAUACUUGAGGAUCACCCAAGUGGAGUCCCGUUUGGGCGGUAAAUAGUAGAAGGCCGACCCA [jl-ex3-4.43 ViennaUCT mod] (Eterna round: R97, puzzle: Exclusion 3)	14.1 nM	–	16.5 nM	–	–	–
UAUAUAUAGUAAGGAUAUGUAUAUAUGUUAUAAACAGAAGGUACUGACAUGAGGAUCACCCAUGUUUUAGUGUGGGCAUGUAGA [JMF's solution 59] (Eterna round: R96, puzzle: Exclusion NG 1)	–	53.8 nM	–	–	–	–
GGUUGGCGAGGAUAUACAUGAGGAUCACCCAUGUGAGAGAAAAAAGUGAGCAAGAAAAGUAGAAGGCGCUGACG [salish99_ex3_r3_030] (Eterna round: R96, puzzle: Exclusion 3)	209 nM	110 nM	59.9 nM	–	–	–
ACAUGAGGAUCACCCAUGUCCGGCUGGUCUGUUCCGGCUGUCGAGGAUAUAGUCCGGUGUUCGCGCUAGAAGGUGAGGGCUGGA [Aenatbe mod 45] (Eterna round: R96, puzzle: Exclusion NG 3)	78.9 nM	48.6 nM	70.1 nM	–	–	–
UCCUGGCGAGGAUAUACAAAGAUUUUUUCGUUUUGUCUCGAACAUGAGGAUCACCCAUGUAGAAGGUGCUGCUG [JR_Ex2_Sub014] (Eterna round: R97, puzzle: Exclusion 2)	50.3 nM	–	52.2 nM	–	–	–
UUUAACAAGCCAGAUCCUCACAUGAGGAUCACCCAUGUGCUCGUCUGAUUUUGUACUAUCAUGUGAGUGAUAGUGUU [Level Boss var2-06] (puzzle: Sensor v3, turn-off variant 1)	–	–	–	67.3 nM	24.7 nM	115 nM
ACGGUCAUAGGAUAUACUGGGACAGCGCUAAGGCGCCCUUGACAUGAGGAUCACCCAUGUAGAAGGAUGUCCGA [EX2 C.1] (Eterna round: R97, puzzle: Exclusion 2)	152 nM	–	22.6 nM	–	–	–
AAAAGGCGAGGAUAUACAUGAGGAUCACCCAUGUGAAAGAAAGAAAGAAAGAAGAAAGGUAGAAGGCGCAAAGA [Mine, also!] (puzzle: Exclusion 3)	–	–	–	83.6 nM	42.6 nM	67 nM
GUGUACGGAGGAUAUAUAUGGGCAGCAUACGCUGCAGCUUCACAUGAGGAUCACCCAUGUAGAAGGCUGUACAC [Mat - Exclusion 2 - Mod of Hyphema - D100] (Eterna round: R96, puzzle: Exclusion 2)	223 nM	18.5 nM	24.8 nM	–	–	–
AAAACAAAAGGAUAUACAUGAGGAUCACCCAUGUGGCAUAAAAUCGCCGCUAAACCAUGUAGAAGGUUUGCGAA [EX3 A.6] (Eterna round: R97, puzzle: Exclusion 3)	25.5 nM	–	19.6 nM	–	–	–
CGGGCGCGUGUAGGAUAUCGGGCCCGGUGGGCCCGAGAAGGACAUGAGGAUCACCCAUGUGCCCGGGUUGCCCGGGCGCGCCCG [-50, -49 kcal and 14% A] (Eterna round: R96, puzzle: Exclusion NG 1)	14.6 nM	7.82 nM	14.5 nM	–	–	–
CCGCAACAUGAGGAUCACCCAUGUCAGGAUAUCGUACGUUCGUCGAAAGACGAUCGUACGAGAAGGGUGUGCGG [Eli x1 4.36] (Eterna round: R97, puzzle: Exclusion 1)	79.8 nM	–	110 nM	–	–	–
UAAAAGCGAGGAUAUACAUGAGGAUCACCCAUGUGAGGCGAAAAGCCUCGGGCCAUCAGUAGAAGGUGCAAAAC [Arcecela] (puzzle: Exclusion 3)	–	–	–	79 nM	68.9 nM	112 nM
GGCGACCACCUCGUGCACUACAUGAGGAUCACCCAUGUUUUUCGCUCGUCUUAUGCGCCAACCUCCCAAACACUAAG [Gelaesxe] (puzzle: Sensor v3, turn-off variant 1)	–	–	–	34.6 nM	103 nM	35.4 nM
GUUUCGAGACGGAGAUCCGACAUGAGGAUCACCCAUGUCUCGUAAGCUUUUUGCUCGUCUUAUACUCCUCUGUUCUC [Elimod 49 - Jieux - Sensor, turn-off variant 1] (Eterna round: R97, puzzle: Sensor, turn-off variant 1)	26 nM	–	27.2 nM	–	–	–
CCAAGCUACUUCAUUAUCCACAUGAGGAUCACCCAUGUCUUGGCAAUUAUGACCUGCCCGUCAGGAGCUCGUCUUAU [Sensor-V1 #39] (Eterna round: R97, puzzle: Sensor, turn-off variant 1)	113 nM	–	55.2 nM	–	–	–

Sequence	apparent KD of MS2 coat protein (input ligand: FMN 200 uM)	apparent KD of MS2 coat protein [1]	apparent KD of MS2 coat protein (input ligand: none)	apparent KD of MS2 coat protein [2]	apparent KD of MS2 coat protein [3]	apparent KD of MS2 coat protein [4]
CUAAAUCAUGUAGGAUAUGCAUAGCGAAGCUAUGCAGAAGGACAUGAGGAUCACCCAUGUUCUUCCGUCUGCGUACAGACGGAA [Mat - Exclusion NG 1 - Mod of JL - D30] (Eterna round: R96, puzzle: Exclusion NG 1)	268 nM	32.4 nM	33.5 nM	–	–	–
GCGCCAUCGUGAGAUGGCGUAAUUACAUGAGGAUCACCCAUGUAGGAUAUCGAUUGCUUUGCAGUCGAGAAGGGCAUGUAUAAU [JL ENG3 3.94] (Eterna round: R96, puzzle: Exclusion NG 3)	45 nM	26.5 nM	37.9 nM	–	–	–
CUUCGUAAUGUCAGGAUAUUUUCGAGGGCAACUCAAAAGAAGGGACAUGAGGAUCACCCAUGUGGCAACGUCAU [Eternabot (L2) Solution 83] (Eterna round: R97, puzzle: Brourd's mod of Exclusion 4)	177 nM	–	51.9 nM	–	–	–
CUUAUGUAAGGAUAUGCCUGGCCGUGAGGCCAAAUUGAAUAGCAGAAGGUACAUGAGGAUCACCCAUGUACGGG [jl-ex4-4.63 ViennaUCT mod] (Eterna round: R97, puzzle: Exclusion 4)	325 nM	–	364 nM	–	–	–
AAAUAAAGGUAGGAUAUCGAUUUUAAUUAAUAUCGAGAAGGGUCAACAUGAGGAUCACCCAUGUCAGCAUGUAA [LRO-Excl6-01-Rocketman] (Eterna round: R97, puzzle: Exclusion 6)	59.9 nM	–	64.2 nM	–	–	–
GGCCUGUUAGGAUAUUAGUAGUAGUCAGAAAAGACUAUUACUGAGAAGGAACAUGAGGAUCACCCAUGUUGGCC [Mat - Exclusion 4 - Eli Mod - D39] (Eterna round: R97, puzzle: Exclusion 4)	17.2 nM	–	17.4 nM	–	–	–
UUUCGGCGGACCGUGGCUUUUUGCUCGUCUUAUGCUACGACAUGAGGAUCACCCAUGUGGUGGUGGUCCGUUGUUGU [Grok-var2-11 mod JAL] (puzzle: Sensor v3, turn-off variant 2)	–	–	–	59.7 nM	10.4 nM	39.7 nM
AAAUUGGUAGAGGAUAUCGCACAGGAUUUACUGCGAGAAGGCUGCACAUGAGGAUCACCCAUGUUUAGUUGCGA [EX6 #36] (Eterna round: R97, puzzle: Exclusion 6)	20.3 nM	–	17.3 nM	–	–	–
AAAGAACAUGAGGAUCACCCAUGUGAGGAUAUGUAAGGAUAGGACCGAAGAAGCGAGAACAGAAGGCACAGAGG [JR_Exclu1_Sub069] (puzzle: Exclusion 1)	–	–	–	35 nM	23.4 nM	18.6 nM
UCUCGACAUGAGGAUCACCCAUGUCAGGAUAUUGUGUUUGAGGUUUUUUACCUUUUGGCAAGAAGGGAUGUGUG [LRO-Excl1-21] (Eterna round: R96, puzzle: Exclusion 1)	27.5 nM	19.7 nM	27.7 nM	–	–	–
CGUCUGUCAGGAUAUGGUUACAUAGACAUGAGGAUCACCCAUGUGACGUGGGACUAGUGAUUAGAAGGGACGAACG [EX5 #69] (Eterna round: R97, puzzle: Exclusion 5)	36.5 nM	–	31.7 nM	–	–	–
CUAAUACAUCAGGAUAUGAUAGCCUAUAGCAUAUCAGAAGGGAUGACAUGAGGAUCACCCAUGUCAAAGGGUGA [eternacac ex6r4 sub19] (Eterna round: R97, puzzle: Exclusion 6)	396 nM	–	444 nM	–	–	–
CAAUUAAUUAAUUAAUAAUACAUGAGGAUCACCCAUGUAGAUCCUACAUACAAGCUUUGUAGCUCGUCUUAUAAUUA [Stov1/3-A3] (Eterna round: R97, puzzle: Sensor, turn-off variant 1)	368 nM	–	417 nM	–	–	–
UUGUUAUGUGUAGGAUAUGCGUAUUAUUAUUAUGCAGAAGGACAUGAGGAUCACCCAUGUGUAUUAUUAUUAUAUAUUAUAUAU [Title] (Eterna round: R96, puzzle: Exclusion NG 1)	41.2 nM	20.4 nM	22 nM	–	–	–
GAUCAGAUAGGAUAUACAGGCCCGUCUUUAUAUUGAUCCCGACAUGAGGAUCACCCAUGUAGAAGGAUCAGAUC [Mod 28 - Jieux - Exclusion 2] (Eterna round: R97, puzzle: Exclusion 2)	23.3 nM	–	17.5 nM	–	–	–
CUAGUCCGAGGAUAUAUAUUGUGAAACAUGAGGAUCACCCAUGUUAUAAUAUGGAAAUAAAUAGAAGGCGGACUAG [Mat - Exclusion 5 - JL mod - D57] (puzzle: Exclusion 5)	–	–	–	23.3 nM	38.5 nM	18.8 nM

Reference: the supplement of paper PMC9170038
